# B1: BMP4: agent which induces BMP signalling, added during GABAergic differentiation of hiPSCs (protein, UniProt P12644 293-408, looked up)
# Bone morphogenetic protein 4: SPKHHSQRARKKNKNCRRHSLYVDFSDVGWNDWIVAPPGYQAFYCHGDCPFPLADHLNSTNHAIVQTLVNSVNSSIPKACCVPTELSAISMLYLDEYDKVVLKNYQEMVVEGCGCR
# How the values were obtained:
# PAVB expression = assay: qPCR of PAVB expression in hiPSC-GABA neurons exposed to BMP4; assay type: cell-based, human; conditions: BMP4 exposure during week 3 (about DIV14 to DIV21); not with week 4 or weeks 3 and 4
# Procedure: (§1) After quantification, 1 μg of RNA was retrotranscribed with Superscript III First-Strand Synthesis SuperMix for qRT-PCR (Thermo Fisher Scientific Life Sciences). A total of 2 μl of cDNA was used for qPCR using the SYBR Select Master Mix. Real-Time PCR was run on a LightCycler 480 Instrument II (Roche Life Science). The cycling program for all genes is the following: • 1. 95° C. 10′ Initial denaturation step • 2. 95° C. 30″ • 3. 58° C. 30″ • 4. 72° C. 30″ go to 2 for 35 cycles • 5. Melting curve analysis.
# (§2) iGABAergic neurons were prepared according to an adaptation of the method described in Example 5. During the GABAergic differentiation protocol, hiPSCs were exposed to BMP4, during week 3 only (i.e. about DIV14 to about DIV21), week 4 only (i.e. about DIV21 to about DIV28) or during week 3 and week 4 (i.e. about DIV14 to about DIV28). Following differentiation (i.e. DIV28) the iGABAergic neurons were assessed for expression of somatostatin (SST) and Parvalbumin (PVALB). BMP4 treated cells were then be tested for their ability to reverse neuropathic pain and compared to non-treated iGABAergic neurons using the SNI model as hereinbefore described.
# SST expression = assay: qPCR of SST expression in hiPSC-GABA neurons exposed to BMP4; assay type: cell-based, human; conditions: BMP4 exposure during either or both of weeks 3 and 4
# Procedure: as §1, §2
molecule,measurement,setting,value
B1,increase of PAVB expression,PAVB expression,6 fold
same,reduction of SST expression,SST expression,50%

# Reference: patent publication US20210244768A1, “CELL COMPOSITIONS AND USES THEREOF” (THE UNIVERSITY OF SYDNEY, priority 2018, published 2021)
